The target in the assay is HLA-DR molecules of the human B-lymphoblastoid cell line Awells (HLA-DRB1*0401, HLA-DRB4*0101) (human). The experiment in a line: cell-based or functional assay.

B1: L243 (anti-HLA-DR) (antibody, from another filing, V domains shown)
VH: QIQLVQSGPELKKPGETVKISCKASGFTFTNYGMNWVKQAPGKGLKWMGWINTYTREPTYADDFKGRFAFSLETSASTAYLQINNLKNEDTAKYFCARDITAVVPTGFDYWGQGTTLTVSS
VL: DIQMTQSPASLSVSVGETVTITCRASENIYSNLAWYRQKQGKSPQLLVFAASNLADGVPSRFSGSGSGTQYSLKINSLQSEDFGDYYCQHFWTTPWAFGGGTNLEIKR
Consider B1, for which the inhibition of T-helper cell line activation by Awells-Ii-cyclin D1 transfectants was 71.2%.
